Laboratory results published in patent publication US20080248043A1 (Amgen, published 2008).
Numbering of substitutions follows the chain as printed.

B1: 3C7 (antibody, V domains shown)
VH: QVQLVESGGGVVQPGTSLRLSCAASGFTFSSYGIHWVRQAPGKGLEWVAVIWYDGSNKFYADSVKGRFTISRDNSKNTLYLQMNSLRAEDTAVYYCARDPLGYCSSTSCSYFDYWGQGTLVTVSS
VL: DIQMTQSPSSVSASVGDRVTITCRASQGISNWLAWYQQKPGKAPKLLIYAASSLQSGVPSRFSGSGSGTDFTLTIRSLQPEDFATYYCQQANNFPLTFGGGTKVEIK
B2: 6B1 (antibody, V domains shown)
VH: B1 VH with Y60H
VL: B1 VL with R76S
B3: 6B5 (antibody, V domains shown)
VH: not shown
VL: DIQMTQSPSSLSASVGDRVTITCRASQGIRSDLGWYQQRPGKTPKRLIYAASSLQSGVPSRFSGSGSGTEFTLTISSLQPEDFATYYCQQYNSYPLTFGGGTKVEIK
B4: 5E4 (antibody, V domains shown)
VH: QVHLVQSGAEVKKPGASVKVSCKASGYTFTGYYVHWVRQAPGQGLEWMGWINPNSGGTNYAQKFQGRVTMTRDTSISTAYMELSRLRSDDTAVYFCAGGRYLDYWGQGTLVTVSS
VL: B3 VL with S31N, R39K, T43A, Q89L, L96I, G100Q, K103R, V104L
B5: 5D3 (antibody, V domains shown)
VH: QVQLVQSGAEVKKPGASVKVSCKASGYTFTSYGISWVRQAPGQGLEWMGWISAYNGNTNYAQKLQGRVTMTTDTSTSTAYMELRSLRSDDTAVYYCAVGRYLDYWGQGTLVTVSS
VL: B3 VL with G28D, S31N, R39K, T43A, Q89L
B6: 5A7 (antibody, V domains shown)
VH: B5 VH
VL: B3 VL with G28D, S31N, R39K, T43A, Q89L
B7: 1B5 (antibody, V domains shown)
VH: QVQLVESGGGVVQPGRSLRLSCAASGFTFSSYGMHWVRQAPGKGLEWVAVIWYDGSNKYYADSVKGRFTISRDNSKNTLYLQMNSLRAEDTAVYYCARGDFYWFDPWGQGTLVTVSS
VL: B3 VL
B8: 3A7 (antibody, V domains shown)
VH: B5 VH
VL: B3 VL with G28D, S31N, R39K, T43A, Q89L
B9: 6B8 (antibody, V domains shown)
VH: B5 VH
VL: B3 VL with G28D, S31N, R39K, T43A, Q89L
B10: 3H12 (antibody, V domains shown)
VH: QVQLQESGPGLVKPSETLSLTCTVSDGSISSFYWSWIRQPPGKGLEWIGYIYYSGSTNYNPSLKSRVTISVDTSKNQFSLKLSSVTAADTAVYYCARDYDILTGYSNYYGMDVWGQGTTVTVSS
VL: B3 VL with S31N, R39K, T43A, Q89L, Y91H, L96F, G100P, V104L, E105D
B11: 6C2 (antibody, V domains shown)
VH: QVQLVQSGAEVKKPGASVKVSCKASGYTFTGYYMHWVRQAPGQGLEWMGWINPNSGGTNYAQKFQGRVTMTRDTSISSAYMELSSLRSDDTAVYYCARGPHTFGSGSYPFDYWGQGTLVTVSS
VL: B3 VL with K42N
B12: 4G2 (antibody, V domains shown)
VH: QVQLVQSGAEVKKPGASVKVSCKASGFPFTDYYMHWVRQAPGQGLEWMGWINSNSGGTNYAQKFQGRVTMTRDTSISTAYMELSRLRSDDTAVYYCARGPHSFGSGSYPFDYWGQGTLVTVSS
VL: B3 VL
B13: 4E2 (antibody, V domains shown)
VH: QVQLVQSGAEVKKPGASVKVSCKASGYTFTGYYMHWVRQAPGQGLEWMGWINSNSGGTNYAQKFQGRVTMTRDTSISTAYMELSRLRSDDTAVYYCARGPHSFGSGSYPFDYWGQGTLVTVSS
VL: B3 VL
B14: 5A5 (antibody, V domains shown)
VH: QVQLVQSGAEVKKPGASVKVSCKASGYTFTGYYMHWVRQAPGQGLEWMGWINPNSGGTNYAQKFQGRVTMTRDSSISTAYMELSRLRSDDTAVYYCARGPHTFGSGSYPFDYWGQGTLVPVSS
VL: B3 VL with M4L
B15: 6C1 (antibody, V domains shown)
VH: B12 VH
VL: B3 VL
B16: 4A10 (antibody, V domains shown)
VH: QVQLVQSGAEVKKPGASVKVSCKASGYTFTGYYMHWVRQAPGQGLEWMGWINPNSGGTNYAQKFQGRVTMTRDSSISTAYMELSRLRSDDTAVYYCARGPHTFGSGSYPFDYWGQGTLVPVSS
VL: B3 VL with M4L
B17: 5D6 (antibody, V domains shown)
VH: B5 VH with S77N
VL: B3 VL with G28D, S31N, R39K, T43A, Q89L
B18: 3F3 (antibody, V domains shown)
VH: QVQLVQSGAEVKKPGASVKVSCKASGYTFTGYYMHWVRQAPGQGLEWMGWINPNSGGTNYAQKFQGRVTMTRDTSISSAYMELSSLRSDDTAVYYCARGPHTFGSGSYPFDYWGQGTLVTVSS
VL: B3 VL with K42N

molecular target: S protein of SARS-CoV Urbani strain (on virus) (SARS-CoV Urbani strain, UniProt P59594 14-1255); test: cell-based or functional assay

**Q.** B1 was tested. Which “Neutralizing titer 200TCID50” value did it give?
**A.** Its value is 12.5 µg/mL.

**Q.** For B2, which “Neutralizing titer 200TCID50” value is on record?
**A.** The value was 3.12 µg/mL.

**Q.** With B3 as the binder, how does the “Neutralizing titer 200TCID50” value read?
**A.** Its value is 3.12 µg/mL.

**Q.** How did the “Neutralizing titer 200TCID50” value turn out when B4 was run?
**A.** Its value is 12.5 µg/mL.

**Q.** Which “Neutralizing titer 200TCID50” value does the source give for B5 here?
**A.** The value was 0.195 µg/mL.

**Q.** With B6 as the binder, how does the “Neutralizing titer 200TCID50” value read?
**A.** The value was 0.781 µg/mL.

**Q.** B7 was tested. Which “Neutralizing titer 200TCID50” value did it give?
**A.** The value was 0.195 µg/mL.

**Q.** How did the “Neutralizing titer 200TCID50” value turn out when B8 was run?
**A.** The value was 0.195 µg/mL.

**Q.** B9 was tested. Which “Neutralizing titer 200TCID50” value did it give?
**A.** The value was 0.781 µg/mL.

**Q.** With B10 as the binder, how does the “Neutralizing titer 200TCID50” value read?
**A.** Its value is 3.12 µg/mL.

**Q.** B11 was tested. Which “Neutralizing titer 200TCID50” value did it give?
**A.** Its value is 0.781 µg/mL.

**Q.** How did the “Neutralizing titer 200TCID50” value turn out when B12 was run?
**A.** Its value is 0.781 µg/mL.

**Q.** With B13 as the binder, how does the “Neutralizing titer 200TCID50” value read?
**A.** The value was 0.781 µg/mL.

**Q.** With B14 as the binder, how does the “Neutralizing titer 200TCID50” value read?
**A.** Its value is 0.195 µg/mL.

**Q.** B15 was tested. Which “Neutralizing titer 200TCID50” value did it give?
**A.** The value was 0.781 µg/mL.

**Q.** How did the “Neutralizing titer 200TCID50” value turn out when B16 was run?
**A.** The value was 3.12 µg/mL.

**Q.** With B17 as the binder, how does the “Neutralizing titer 200TCID50” value read?
**A.** The value was 0.195 µg/mL.

**Q.** How did the “Neutralizing titer 200TCID50” value turn out when B18 was run?
**A.** Its value is 0.781 µg/mL.
